Laboratory results as given in patent US20240052051A1 (Regeneron, published 2024).

Target: T1, human transferrin receptor extracellular domain with hexahistidine-myc-myc tag (REGN2431) (human, UniProt P02786 89-760)
T1 construct: also called hTFR-mmh; hmm.hTfRC
Assay: blocking ELISA: supernatant pre-mixed with 300 pM Hmm-hTFRC, hTFRC bound to immobilized human holo-Tf read
Procedure: In the blocking assay, the anti-human Transferrin goat IgG polyclonal antibody (anti-hTf pAb) was passively absorbed at a concentration of 2 micrograms/mL in PBS on a 96-well microtiter plate overnight at 4° C. […] To the same plate, human holo-Tf was then added at a concentration of 1 micrograms/mL in PBS+0.5% BSA for 2 hours at room temperature. […] After a 1-hour incubation, the mixtures were transferred to the human holo-Tf microtiter plates. […] The plates were developed using TMB substrate solution according to the manufacturer's recommended procedure and absorbance at 450 nm was measured on a Victor™ Multilabel Plate Reader.
The ability of the anti-TfR antibody to block human TFRC binding to human holo-Tf was evaluated using an ELISA-based blocking assay.

T1 sequence (P02786 other isoform, or with tags, fused parts or gaps): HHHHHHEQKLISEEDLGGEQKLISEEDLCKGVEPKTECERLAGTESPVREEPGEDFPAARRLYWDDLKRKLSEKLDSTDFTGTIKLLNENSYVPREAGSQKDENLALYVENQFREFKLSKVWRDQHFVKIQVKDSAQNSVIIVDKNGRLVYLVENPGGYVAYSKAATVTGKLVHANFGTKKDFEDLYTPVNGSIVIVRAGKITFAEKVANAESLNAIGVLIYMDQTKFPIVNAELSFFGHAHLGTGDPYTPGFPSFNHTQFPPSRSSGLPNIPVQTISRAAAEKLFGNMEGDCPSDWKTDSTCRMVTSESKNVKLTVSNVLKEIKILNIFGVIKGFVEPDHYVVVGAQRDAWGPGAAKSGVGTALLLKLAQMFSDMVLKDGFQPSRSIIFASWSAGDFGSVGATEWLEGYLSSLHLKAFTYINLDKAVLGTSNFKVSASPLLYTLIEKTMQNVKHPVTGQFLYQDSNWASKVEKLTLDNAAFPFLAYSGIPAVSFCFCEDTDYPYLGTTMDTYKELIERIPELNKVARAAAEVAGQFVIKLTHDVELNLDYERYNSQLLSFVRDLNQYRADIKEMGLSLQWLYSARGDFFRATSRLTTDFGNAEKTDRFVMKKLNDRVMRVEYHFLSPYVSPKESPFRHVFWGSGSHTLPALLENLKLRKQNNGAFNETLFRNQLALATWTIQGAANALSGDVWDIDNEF

% Blocking: 0%
B1: 69348 anti-hTfR scFv (VH-VK) (scFv)
scFv: QVQLVESGGGVVQPGRSLRLSCAASGFTFTTYGMHWVRQAPGKGLEWVAVIWYDGSNKYYGDSVKGRFTISRDNSKNTLYLQMNSLRVDDTAVYYCTRTHGYTRSSDGFDYWGQGTLVTVSSGGGGSGGGGSGGGGSDIQMTQSPSSLSASVGDRVTITCRASQSIRNVLGWFQQKPGKAPQRLIYAASSLQSGVPSRFSGSGSGTEFTLTISSLQPEDFATYYCLQHNFYPLTFGGGTKVEIK
notes: also called 69348 scFv (VH - VK) Format
